Data published in patent US20210340207A1 (Merck Sharp & Dohme, published 2021).
Numbering of substitutions follows the chain as printed. Names and notes keep the numbering of the source. Values belong to the binder of their own block, whether it stands above or below them.

Columns and labels:
[1] = target: T1, mouse IL-2Rαβγc (on CTLL2-STAT5 reporter cells) (mouse, UniProt P01590 22-268; P16297 27-539; P34902 23-369); test: cell-based or functional assay
T1 sequence (looked up) 1: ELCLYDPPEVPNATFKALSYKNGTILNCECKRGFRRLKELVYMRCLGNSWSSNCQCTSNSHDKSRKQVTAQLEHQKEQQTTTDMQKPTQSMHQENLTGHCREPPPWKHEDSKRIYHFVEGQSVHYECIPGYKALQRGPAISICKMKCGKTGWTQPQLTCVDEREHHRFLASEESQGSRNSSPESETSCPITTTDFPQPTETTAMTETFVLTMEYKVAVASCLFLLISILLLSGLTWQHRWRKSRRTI
T1 sequence (looked up) 2: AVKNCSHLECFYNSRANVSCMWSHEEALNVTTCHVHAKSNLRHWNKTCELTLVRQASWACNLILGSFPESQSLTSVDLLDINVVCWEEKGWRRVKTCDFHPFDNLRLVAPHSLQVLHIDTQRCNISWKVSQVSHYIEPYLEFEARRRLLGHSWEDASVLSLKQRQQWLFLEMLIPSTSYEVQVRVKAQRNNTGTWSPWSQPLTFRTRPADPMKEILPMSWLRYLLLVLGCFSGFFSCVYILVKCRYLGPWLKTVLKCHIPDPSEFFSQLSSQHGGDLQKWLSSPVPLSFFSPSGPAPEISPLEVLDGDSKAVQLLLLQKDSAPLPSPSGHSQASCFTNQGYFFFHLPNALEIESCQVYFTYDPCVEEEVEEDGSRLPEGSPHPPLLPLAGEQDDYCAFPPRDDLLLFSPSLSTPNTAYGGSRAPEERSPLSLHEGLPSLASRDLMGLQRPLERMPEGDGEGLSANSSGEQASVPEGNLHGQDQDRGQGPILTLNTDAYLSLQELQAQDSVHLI
T1 sequence (looked up) 3: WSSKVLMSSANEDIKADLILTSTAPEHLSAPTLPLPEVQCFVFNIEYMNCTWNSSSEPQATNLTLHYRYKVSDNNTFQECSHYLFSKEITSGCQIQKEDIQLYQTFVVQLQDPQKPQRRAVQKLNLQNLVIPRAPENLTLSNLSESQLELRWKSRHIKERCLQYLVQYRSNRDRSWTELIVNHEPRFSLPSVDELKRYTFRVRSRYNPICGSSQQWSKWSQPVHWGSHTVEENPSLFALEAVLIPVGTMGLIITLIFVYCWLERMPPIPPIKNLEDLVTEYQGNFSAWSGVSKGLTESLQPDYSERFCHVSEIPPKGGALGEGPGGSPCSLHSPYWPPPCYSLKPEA

[2] = target: T2, human IL-2Rβγc (on DERL-7 cells, U2OS IL2RB/IL2RG cells, CD25 knockout Kit225-STAT5 cells, primary CD8+ CTLs) (human, UniProt P14784 27-551; P31785 23-369); test: cell-based or functional assay
T2 sequence (looked up) 1: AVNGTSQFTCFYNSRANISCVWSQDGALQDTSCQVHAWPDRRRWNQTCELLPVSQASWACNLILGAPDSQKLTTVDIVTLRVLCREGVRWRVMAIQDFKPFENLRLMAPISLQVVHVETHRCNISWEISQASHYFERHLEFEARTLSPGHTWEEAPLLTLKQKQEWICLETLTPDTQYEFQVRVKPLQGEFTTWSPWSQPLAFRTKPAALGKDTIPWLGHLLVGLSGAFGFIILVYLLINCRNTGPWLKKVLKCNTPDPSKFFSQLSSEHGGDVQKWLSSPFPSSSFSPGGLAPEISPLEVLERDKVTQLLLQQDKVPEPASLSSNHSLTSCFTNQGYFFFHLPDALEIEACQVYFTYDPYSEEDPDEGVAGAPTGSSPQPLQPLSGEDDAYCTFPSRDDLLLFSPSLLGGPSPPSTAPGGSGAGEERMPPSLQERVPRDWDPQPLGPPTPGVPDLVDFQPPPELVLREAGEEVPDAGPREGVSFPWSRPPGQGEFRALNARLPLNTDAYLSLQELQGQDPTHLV
T2 sequence (looked up) 2: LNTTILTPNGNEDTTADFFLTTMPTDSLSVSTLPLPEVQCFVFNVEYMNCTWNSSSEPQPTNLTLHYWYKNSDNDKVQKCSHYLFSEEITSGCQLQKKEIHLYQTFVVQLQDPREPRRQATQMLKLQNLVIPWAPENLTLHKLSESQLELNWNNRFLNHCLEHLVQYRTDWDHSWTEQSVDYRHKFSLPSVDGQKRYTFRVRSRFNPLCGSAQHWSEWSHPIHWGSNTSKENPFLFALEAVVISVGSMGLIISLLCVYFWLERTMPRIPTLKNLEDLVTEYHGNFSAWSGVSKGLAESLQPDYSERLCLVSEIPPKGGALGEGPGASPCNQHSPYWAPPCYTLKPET

Human IL-2Rβ (Table 7B) = target: T3, Human IL-2Rβ (Table 7B) (human, UniProt P14784 27-239, limits assumed); test: SPR (Biacore T200)
T3 sequence (looked up): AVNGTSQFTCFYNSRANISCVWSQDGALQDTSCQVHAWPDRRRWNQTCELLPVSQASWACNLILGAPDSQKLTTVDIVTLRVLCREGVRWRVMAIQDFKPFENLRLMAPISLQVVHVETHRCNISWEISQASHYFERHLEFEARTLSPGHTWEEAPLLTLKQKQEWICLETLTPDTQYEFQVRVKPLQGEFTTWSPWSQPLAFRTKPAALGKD

[3] = target: T1, mouse IL-2Rαβγc (on CTLL2-STAT5 …); test: cell-based or functional assay; remark: listed apart in the source
[4] = target: T4, human IL-2Rαβγc (on Kit225-STAT5 reporter cells, NK-92 cells, primary Treg cells) (human, UniProt P01589 22-272; P14784 27-551; P31785 23-369); test: cell-based or functional assay
T4 sequence (looked up) 1: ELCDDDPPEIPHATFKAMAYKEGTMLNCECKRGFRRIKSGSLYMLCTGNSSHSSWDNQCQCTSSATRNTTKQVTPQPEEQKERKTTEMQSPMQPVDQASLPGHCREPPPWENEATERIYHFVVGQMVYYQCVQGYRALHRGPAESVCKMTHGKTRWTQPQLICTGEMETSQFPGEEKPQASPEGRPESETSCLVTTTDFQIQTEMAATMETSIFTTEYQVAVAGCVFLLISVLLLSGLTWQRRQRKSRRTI
T4 sequence (looked up) 2: T2 sequence (looked up) 1
T4 sequence (looked up) 3: T2 sequence (looked up) 2

[5] = target: T2, human IL-2Rβγc (on DERL-7 cells, U2OS …); test: cell-based or functional assay; remark: listed apart in the source
[6] = target: T2, human IL-2Rβγc (on DERL-7 cells, U2OS …); test: cell-based or functional assay; remark: listed apart in the source

B1: Ald-6HIS_E61S/P64A/Y106A (ligand)
chain: PTSSSTKKTQLQLEHLLLDLQMILNGINNYKNPKLTRMLTFKFYMPKKATELKHLQCLEESLKALEEVLNLAQSKNFHLRPRDLISNINVIVLELKGSETTFMCEAADETATIVEFLNRWITFSQSIISTLTGGSHHHHHH
CTLL2-STAT5 EC50 [1]: > 7 nM | U2OS-IL2Rbg EC50 [2]: 5.77 nM

B2: Ald-6HIS_R37A/T40D/E60T (ligand)
chain: B1 chain with R37A, T40D, E60T, S61E, A64P, A106Y
Kd (Human IL-2Rβ (Table 7B)): 1900 nM | koff (Human IL-2Rβ (Table 7B)): 0.42 s⁻¹ | kon (Human IL-2Rβ (Table 7B)): 220000 M⁻¹ s⁻¹ | STAT5-CTLL2 EC50 [3]: 6.22 nM | STAT5-CTLL2 EC50 Fold Change [3]: 689 fold | NK-92 EC50 Fold Change [4]: 11 fold | NK-92 cell assay EC50 [4]: 0.076 nM | U2OS B/BG EC50 Fold Change [5]: 2.53 fold | U2OS B/BG bridging cell assay EC50 [5]: 0.403 nM | DERL7 EC50 Fold Change [6]: 2.41 fold | DERL7 cell assay EC50 [6]: 0.043 nM

B3: Ald-6HIS_R37A/F41K/E60T (ligand)
chain: B1 chain with R37A, F41K, E60T, S61E, A64P, A106Y
Kd (Human IL-2Rβ (Table 7B)): 860 nM | koff (Human IL-2Rβ (Table 7B)): 0.013 s⁻¹ | STAT5-CTLL2 EC50 [3]: 95.2 nM | STAT5-CTLL2 EC50 Fold Change [3]: 10500 fold | NK-92 EC50 Fold Change [4]: 9.03 fold | NK-92 cell assay EC50 [4]: 0.063 nM | U2OS B/BG EC50 Fold Change [5]: 2.04 fold | U2OS B/BG bridging cell assay EC50 [5]: 0.325 nM | DERL7 EC50 Fold Change [6]: 1.46 fold | DERL7 cell assay EC50 [6]: 0.026 nM

B5: Ald-6HIS_T40D/F41K/E60T (ligand)
chain: B1 chain with T40D, F41K, E60T, S61E, A64P, A106Y
Kd (Human IL-2Rβ (Table 7B)): 1000 nM | koff (Human IL-2Rβ (Table 7B)): 0.36 s⁻¹ | kon (Human IL-2Rβ (Table 7B)): 350000 M⁻¹ s⁻¹ | STAT5-CTLL2 EC50 [3]: 98.5 nM | STAT5-CTLL2 EC50 Fold Change [3]: 10900 fold | NK-92 EC50 Fold Change [4]: 9.09 fold | NK-92 cell assay EC50 [4]: 0.063 nM | U2OS B/BG EC50 Fold Change [5]: 3.15 fold | U2OS B/BG bridging cell assay EC50 [5]: 0.503 nM | DERL7 EC50 Fold Change [6]: 1.4 fold | DERL7 cell assay EC50 [6]: 0.025 nM

More lines, in order of falling Kd (Human IL-2Rβ (Table 7B)), values ahead:

Kd (Human IL-2Rβ (Table 7B)): 1100 nM | koff (Human IL-2Rβ (Table 7B)): 0.082 s⁻¹ | kon (Human IL-2Rβ (Table 7B)): 75000 M⁻¹ s⁻¹ | STAT5-CTLL2 EC50 [3]: 0.129 nM | STAT5-CTLL2 EC50 Fold Change [3]: 14.3 fold | NK-92 EC50 Fold Change [4]: 4.46 fold | NK-92 cell assay EC50 [4]: 0.031 nM | U2OS B/BG EC50 Fold Change [5]: 3.28 fold | U2OS B/BG bridging cell assay EC50 [5]: 0.522 nM | DERL7 EC50 Fold Change [6]: 2.14 fold | DERL7 cell assay EC50 [6]: 0.038 nM
B4: Ald-6HIS_R37A/E60T (ligand)
chain: B1 chain with R37A, E60T, S61E, A64P, A106Y

Kd (Human IL-2Rβ (Table 7B)): 590 nM | koff (Human IL-2Rβ (Table 7B)): 0.24 s⁻¹ | kon (Human IL-2Rβ (Table 7B)): 410000 M⁻¹ s⁻¹ | STAT5-CTLL2 EC50 [3]: 12.7 nM | STAT5-CTLL2 EC50 Fold Change [3]: 1400 fold | NK-92 EC50 Fold Change [4]: 3.73 fold | NK-92 cell assay EC50 [4]: 0.026 nM | U2OS B/BG EC50 Fold Change [5]: 1.16 fold | U2OS B/BG bridging cell assay EC50 [5]: 0.185 nM | DERL7 EC50 Fold Change [6]: 0.71 fold | DERL7 cell assay EC50 [6]: 0.013 nM
B6: Ald-6HIS_R37A/T40D/F41K (ligand)
chain: B1 chain with R37A, T40D, F41K, S61E, A64P, A106Y
